According to the supplement of paper PMC10567573:

B1: AUP1 (parent)
chain: EGLLRFSSWPFSIQDVVQPLTLQV
B2: LOXL2 (parent)
chain: RLLRFSSQIHNNGQSDFRPKNGRH
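Further: lentivirally expressed fusions sorted by FACS into six bins by GFP to DsRed ratio, PSI derived from sequencing read proportions per bin multiplied by bin number.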

Variants of: B1
Experiment: protein stability index of a GFP-peptide fusion (GPS, HEK-293T) (PSI 1-6); higher = more stable
Conditions: c terminus: a fixed tail appended
Variant EGLLRFSSWPFSIQDVVQPLTLRV [Q23R] has a protein stability index of 2.91.
Variant EGLLRFSSWPFSIQDVVQPSTLQV [L20S] has a protein stability index of 2.4.
In the case of EGLLRFSSWPFSIQDVVQPATLQV [L20A], the protein stability index is reported as 1.65.
With EGLLRFSSWPFSIQDVVQPHTLQV [L20H] the protein stability index was 1.22.
For EGLLRFSSWPFSIQDVVQPPTLQV [L20P], the protein stability index was 1.63.
EGLLRFSSWPFSIQDVVQPDTLQV [L20D] gave a protein stability index of 1.98.
Work on EGLLRFSSWPFSIQDVVQPTTLQV [L20T] yielded a protein stability index of 1.73.
Variant EGLLRFSSWPFSIQDVVQPETLQV [L20E] has a protein stability index of 1.89.
In the case of EGLLRFSSWPFSIQDVVQPRTLQV [L20R], the protein stability index is reported as 1.24.
In the case of EGLLRFSSWPFSIQDVVQPNTLQV [L20N], the protein stability index is reported as 1.54.
With EGLLRFSSWPFSIQDVVQPQTLQV [L20Q] the protein stability index was 2.28.
For EGLLRFSSWPFSIQDVVQPITLQV [L20I], the protein stability index was 5.25.
Work on EGLLRFSSWPFSIQDVVQPKTLQV [L20K] yielded a protein stability index of 1.19.
Work on EGLLRFSSWPFSIQDVVQPLLLQV [T21L] yielded a protein stability index of 4.97.
EGLLRFSSWPFSIQDVVQPLDLQV [T21D] gave a protein stability index of 1.58.
Variant EGLLRFSSWPFSIQDVVQPLSLQV [T21S] has a protein stability index of 3.58.
Variant EGLLRFSSWPFSIQDVVQPLGLQV [T21G] has a protein stability index of 5.2.
Variant EGLLRFSSWPFSIQDVVQPLPLQV [T21P] has a protein stability index of 1.8.
In the case of EGLLRFSSWPFSIQDVVQPLNLQV [T21N], the protein stability index is reported as 1.74.
EGLLRFSSWPFSIQDVVQPLELQV [T21E] gave a protein stability index of 2.9.
EGLLRFSSWPFSIQDVVQPLQLQV [T21Q] showed a protein stability index of 2.63.
With EGLLRFSSWPFSIQDVVQPLVLQV [T21V] the protein stability index was 2.81.
EGLLRFSSWPFSIQDVVQPLCLQV [T21C] showed a protein stability index of 1.52.

Variants of: B2
Experiment: as above
Conditions: c terminus: a fixed tail appended
With RELRFSSQIHNNGQSDFRPKNGRH [L2E] the protein stability index was 3.98.
RDLRFSSQIHNNGQSDFRPKNGRH [L2D] showed a protein stability index of 4.51.
Variant RCLRFSSQIHNNGQSDFRPKNGRH [L2C] has a protein stability index of 3.82.
With RFLRFSSQIHNNGQSDFRPKNGRH [L2F] the protein stability index was 2.82.
Work on RALRFSSQIHNNGQSDFRPKNGRH [L2A] yielded a protein stability index of 3.68.
Variant ILLRFSSQIHNNGQSDFRPKNGRH [R1I] has a protein stability index of 1.78.
ALLRFSSQIHNNGQSDFRPKNGRH [R1A] gave a protein stability index of 2.41.
In the case of SLLRFSSQIHNNGQSDFRPKNGRH [R1S], the protein stability index is reported as 2.58.
With MLLRFSSQIHNNGQSDFRPKNGRH [R1M] the protein stability index was 2.66.
KLLRFSSQIHNNGQSDFRPKNGRH [R1K] gave a protein stability index of 3.15.
For FLLRFSSQIHNNGQSDFRPKNGRH [R1F], the protein stability index was 1.17.
Work on PLLRFSSQIHNNGQSDFRPKNGRH [R1P] yielded a protein stability index of 4.01.
For WLLRFSSQIHNNGQSDFRPKNGRH [R1W], the protein stability index was 1.65.
In the case of TLLRFSSQIHNNGQSDFRPKNGRH [R1T], the protein stability index is reported as 2.57.
With NLLRFSSQIHNNGQSDFRPKNGRH [R1N] the protein stability index was 2.65.
Variant VLLRFSSQIHNNGQSDFRPKNGRH [R1V] has a protein stability index of 1.89.
YLLRFSSQIHNNGQSDFRPKNGRH [R1Y] showed a protein stability index of 1.71.
For GLLRFSSQIHNNGQSDFRPKNGRH [R1G], the protein stability index was 3.12.
Variant ELLRFSSQIHNNGQSDFRPKNGRH [R1E] has a protein stability index of 2.41.
Variant QLLRFSSQIHNNGQSDFRPKNGRH [R1Q] has a protein stability index of 2.48.
Work on LLLRFSSQIHNNGQSDFRPKNGRH [R1L] yielded a protein stability index of 1.72.
With DLLRFSSQIHNNGQSDFRPKNGRH [R1D] the protein stability index was 2.97.
Work on HLLRFSSQIHNNGQSDFRPKNGRH [R1H] yielded a protein stability index of 2.67.
CLLRFSSQIHNNGQSDFRPKNGRH [R1C] showed a protein stability index of 2.78.
